Results taken from PMC12914960, “Repurposing a detrimental antibody epitope as targeted therapeutics for sepsis and rheumatoid arthritis” (Military Medical Research, 2026).
Where no end group is shown, it is not given here. [ ]: non-standard residue; d: D form. Nle = CCCC[C@H](N)C(=O)O

Columns and labels:
Water solubility = format: physicochemical; conditions: qualitative, text in Fig. 1d
[1] = system: CLP-induced sepsis in BALB/c mice; assay: Septic survival after cecal ligation and puncture (CLP); format: in vivo, mouse; conditions: P2 5.0 mg/kg twice at 2 h and 24 h post-CLP, i.p.
Experimental: Experimental sepsis was induced in BALB/c mice via CLP as previously described. […] The animals were randomly assigned to the control vehicle (n = 10 or n = 20) or experimental groups (n = 10 or n = 20). P2 (5.0 mg/kg), P2-1 (0.1 mg/kg or 1.0 mg/kg), or tetranectin N-terminal deletion mutant (ΔTN) (1.0 mg/kg) were administered intraperitoneally (i.p.) at the indicated time points, and survival rates were monitored. To elucidate P2-1’s protective mechanisms, a separate group of BALB/c mice (n = 4) underwent CLP and received P2-1 (1.0 mg/kg) at 2 h and 20 h post-CLP. At 24 h post-CLP, the animals were euthanized, blood was collected, and serum cytokines and chemokines were measured via murine cytokine antibody arrays as previously described. More details are presented in Additional file 1: Methods.
For these preclinical studies, animals were random ly assigned to experimental groups and treated with P2, P2-1, or a pCTS-L-neutralizing mAb2 according to the indicated dosing regimens. Outcomes, including septic survival rates, arthritis severity, pain sensitivity, and joint tissue histology scores, were collected under blinded experiment al conditions. The study d esign and sample si zes fo r each exp eriment are d etailed in the figure legends. No data, including outlier values, were excluded. For skewed data, outliers were defined via the interquartile range (IQR) method as any value below Q 1 –(1.5 × IQR) or above Q 3 + (1.5 × IQR). For normally distributed data, outliers were defined via the Z-score method as any value with an absolute Z-score greater than 2 or 3. The primary data are reported in Additional file 4. All the reagent sources are listed in Additional file 1: Table S1 .
Cecal ligation and puncture (CLP) sepsis model […]
screening. c Expression and purification of recombinant full-length human TN (residues 1 – 181) and its N-terminal deletion mutant ( ΔTN, residues 45 – 181). […] Recombinant Δ TN was given intraperitoneally at 24 h and 48 h post-C L P, and animal survival rates were monitored. *P < 0.0 5. […]

[2] = molecular target: T1, Recombinant human high mobility group box 1 (HMGB1) (human, UniProt P09429 1-215); assay: SPR; Nicoya OpenSPR; recombinant human HMGB1 immobilized on a carboxyl sensor chip, P2-1 flowed over at various concentrations in HBS-P buffer; 1:1 interaction model; three independent experiments; conditions: both partners purified
T1 construct: high mobility group box 1 (HMGB1); the SPR methods say recombinant human HMGB1; the SPR paragraph says human; The protein on the chip may be that rat construct
T1 sequence (looked up): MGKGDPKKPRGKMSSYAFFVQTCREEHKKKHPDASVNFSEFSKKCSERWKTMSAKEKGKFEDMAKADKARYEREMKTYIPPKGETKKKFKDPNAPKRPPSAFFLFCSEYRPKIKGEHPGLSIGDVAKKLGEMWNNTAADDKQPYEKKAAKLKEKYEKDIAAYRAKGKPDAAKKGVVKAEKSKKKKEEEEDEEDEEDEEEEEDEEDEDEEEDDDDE

[3] = system: Differentiated human macrophages; conditions: TN; ref [21]; cited from earlier work
Text: Crucially, our findings reveal a striking dichotomy in the biological effects of full-length TN and its derived peptide, P2-1, on HMGB1-mediated detrimental macrophage responses. […] We propose that full-length TN, when complexed with HMGB1, may engage unidentified macrophage surface receptor(s), thereby facilitating receptor-mediated endocytosis of TN/HMGB1 complexes and ...

human PBMCs [4] = conditions: TN; ref [21]; cited from earlier work
Text: To validate these RNA-seq findings, we quantified HMGB1-induced cytokine/chemokine protein levels using cytokine antibody arrays. Consistent with our RNA-seq data, HMGB1 stimulation led to a significant increase in the protein levels of various cytokines (e.g., TNF, IL-6, and IL-10) and chemokines (e.g., CXCL5/ENA-78, CXCL1/GRO-α, CXCL8/IL-8, CCL2/MCP-1, and CCL7/MCP-3) in human PBMCs (Fig. 6b), confirming its potent immunomodulating activities.

[5] = system: Differentiated human macrophages; conditions: full-length TN; ref [21]; cited from earlier work
Text: To investigate P2-1’s effect on HMGB1 endocytosis, differentiated human macrophages were exposed to Alexa Fluor 555-labeled HMGB1 under various conditions (Fig. 5d).

human PBMCs [6] = assay: RNA-seq of HMGB1-stimulated PBMCs; format: cell-based
Experimental: Total RNA was isolated from human PBMCs (n = 6 biological replicates) stimulated with HMGB1 in the absence or presence of P2-1 (5.0 or 10.0 µg/ml) via the RNeasy Mini Kit (Qiagen, Germantown, MD, USA) according to the manufacturer’s instructions. cDNA libraries were prepared using the TruSeq RNA Library Prep Kit v2 (Illumina, San Diego, CA, USA) and sequenced on an Illumina NovaSeq 6000 platform to generate 100 bp paired-end reads. Gene counts were quantified via StringTie and DESeq2 for differential gene expression analysis. Volcano plots and heatmaps were generated via ggplot2 and pheatmap packages in R, respectively. Genes with an adjusted P-value < 0.05 and a |log2 fold change|> 1 were considered differentially expressed. […]
custom-synthesized (Gen Script, Piscataway, NJ, USA). P2 -1 was engineered to: i) increase solubility by removing a w ater-insoluble phenylalanine (F) at the C-terminal residue 70 and introducing a water-soluble threonine (T) at N-t erminal residue 54; and ii) reduce oxidative susceptibility by substituting methionine (M) with norleucine (Nle) and cysteine (C) with serine (S), respectively. The pCTS -L-neutralizing mAbs (mAb2) and TN-neutrali zing mAbs (mAb8 and m Ab9) were generated in BALB/c and C57BL/6 m ice as previously described .
RNA sequencing (RNA- Seq) and bioinformatics analysis
Total RNA was isolated from human PBMCs (n= 6 biological replicates) stimulated with HMGB1 in the absence o r pres ence o f P2-1 (5.0 or 10.0 µg/ml) via the RNeasy Mini Kit (Qiagen, Germantown, MD, USA) according to the manufacturer ’s instructions. RNA quantity and quality were assessed via a NanoDrop spectrophotometer, which requires A260/280 and A260/230 ratios to both be > 1.8. Samples meeting these criteria were then sent to two sequencing facilities, where RNA integrity was further confirmed via an Agilent Bioanalyzer. Only samples with an RNA integrity number of 8 or above were accepted for RNA sequencing. cDNA libraries were prepared using the TruSeq RNA Library Prep Kit v2 (Illumina, San Diego, CA, USA) and sequenced on an Illumina NovaSeq 6000 platform to generat e 100 bp paired-end reads. Our data filtering criteria adhered to industry best practices to ensure data quality.
First, raw sequencing reads underwent quality assessment with FastQC, followed by adapter and low-quality nucleotide trimming using Trimmomatic v.0.36. Subsequently, the high- quality reads wer e aligned to the Homo sapiens GRCh38 reference genome using the STAR aligner v.2.5.2b. Following alignment, PCR duplicates were identified and removed with Picard tools to mitigate amplification bias. Before differential expression an alysis, the gene count matrix was filtered to retain only genes with a count-per-million (CPM) > 1 in at least three samples (n = 3, representing our smallest experimental group). This rigorous procedure ensured that analysis was perfo rmed on a robust set of reliably expressed gen es. Finally, gene counts were quantified via StringTie and DESeq2 for differential gene expression analysis. Volcano

[7] = system: CLP-induced sepsis in BALB/c mice; conditions: text in Fig. 1b; mAb8 22% to 77%, mAb9 80% to 50%; ref [21]; cited from earlier work
[8] = system: synthetic TN peptides (P1 – P10); assay: Epitope mapping of mAb8 and mAb9 by dot blotting against TN peptides P1 – P10; format: binding, human; conditions: 10 synthesized TN peptides, mAb 1.0 µg/ml, chemiluminescence
Experimental: remove unbound protein and then fixed with 4% paraformaldehyde for 20 min at room temperature.
Coverslips were mounted onto slides via Vectashield Mounting Medium for fluorescen ce with DAPI (Cat.
#H-1200, Vector Laborat ories, Inc., Newark, CA, USA) for nuclear counterstaining. Endocytic uptake of Alexa Fluor 555- labeled HMGB1 (red) was visualized via the Olympus IX51 inverted fluorescence & phase contrast tissue culture microscope. Cellular HMGB1 uptake was quantified by measuring the mean fluorescen ce intensity of the Alex a- 555- labeled HMGB1 protein within multiple representative cells via ImageJ an alysis software.
Antibody sequencing and antigen contact structure (ACS) prediction
Total RNA was extracted from mAb8 and mAb9 hybridoma cells via TRIzol (Invitrogen, Austin, TX, USA), and cDNA was synthesized via reverse transcriptase. […]
Corresponding to the C-terminal portion of the TN protein (Additional file 1: Fig. S4a) , a library of 10 synthetic peptides (P1 – P10, Additional file 1: Fig. S4b ) was spotted (0.1 μ g in 2.5 μ l) onto nitrocellulose membranes (Cat No. 88013, Thermo Scientific, Waltham, MA, USA ). […] After washing, the membranes were incubated with HRP-conjugated goat anti-mouse IgG (Jackson ImmunoResearch, West Grove, PA, USA), and signals were detected via chemiluminescence as previously described [ 1].

## KVHMKCFLAFQTKTF [P2]
Water solubility
  Water solubility: Poor water solubility
[1]
  septic survival, in words: significantly increased survival rates in both male and female mice

B1: P2-1 peptide, water-soluble derivative of the tetranectin P2 epitope peptide (peptide)
chain: TKVH[Nle]KSFLAFQTKT
[2]
  Kd: 16.9 nM

B2: TN: full-length human tetranectin (protein, UniProt P05452 1-202, looked up)
chain: MELWGAYLLLCLFSLLTQVTTEPPTQKPKKIVNAKKDVVNTKMFEELKSRLDTLAQEVALLKEQQALQTVCLKGTKVHMKCFLAFTQTKTFHEASEDCISRGGTLGTPQTGSENDALYEYLRQSVGNEAEIWLGLNDMAAEGTWVDMTGARIAYKNWETEITAQPDGGKTENCAVLSGAANGKWFDKRCRDQLPYICQFGIV
modifications: full-length
notes: full-length human tetranectin
[3]
  HMGB1 endocytosis and macrophage pyroptosis, in words: enhances HMGB1 endocytosis and subsequent macrophage pyroptosis
Human PBMCs [4]
  HMGB1-induced cytokines/chemokines, in words: did not affect HMGB1-induced cytokines (e.g., IL-6) or chemokines (e.g., MCP-1)
[5]
  HMGB1 cellular uptake, in words: significantly increased HMGB1 uptake

B3: HMGB1: recombinant HMGB1 protein used as stimulus (protein)
chain: MGKGDPKKPRGKMSSYAFFVQTCREEHKKKHPDASVNFSEFSKKCSERWKTMSAKEKGKFEDMAKADKARYEREMKTYIPPKGETKKKFKDPNAPKRPPSAFFLFCSEYRPKIKGEHPGLSIGDVAKKLGEMWNNTAADDKQPYEKKAAKLKEKYEKDIAAYRAKGKPDAAKKGVVKAEKSKKKKEEEEDEEDEEDEEEEEDEEDEDEEEDDDDE
Human PBMCs [6]; CXCL5 (ENA-78), P-adjust 3.97E-166
  Log2 Fold change: 9.951
Human PBMCs [6]; CXCL8 (IL-8), P-adjust 1.17E-133
  Log2 Fold change: 5.985
Human PBMCs [6]; HMGB1-only group, human PBMCs
  Ctsl mRNA upregulation: 3.4 ± 0.3 -fold
Human PBMCs [6]; IL1B (IL-1β), P-adjust 1.29E-157
  Log2 Fold change: 8.223
Human PBMCs [6]; MT1G (Metallothionein-1G), P-adjust 9.98E-141
  Log2 Fold change: 9.377

B4: mAb8: protective anti-tetranectin monoclonal antibody (antibody, V domains shown)
VH: DVNLVESGGGLVKLGGSLKLSCADSGFTFSSYYMSWVRQTPEKRLELVAAINSNGGRTYYPDTVKGRFTISRDNAKNTLYLQMSSLKSEDTALYYCARQGKNGLDYWGQGTSVTVSS
VL: DIQMTQTTSSLSASLGDRVTISCRASQDISNHLNWYQQKPDGTIKLLIYYTSRLHSGVPSRFSGSGSGTDFSLSISNLEQEDIATYFCQQGKTLPPTFGGGTKLEIK
[7]
  survival in sepsis: 77%
[8]
  epitope peptide recognised (dot blot): targeted P5
